Two molecules from paper PMC2654182 (Biochemistry, 2008) can be followed below.

The labels stand for the following.
T1: BARD1 (423-777) (human, UniProt Q99728 423-777)
T1 sequence (looked up): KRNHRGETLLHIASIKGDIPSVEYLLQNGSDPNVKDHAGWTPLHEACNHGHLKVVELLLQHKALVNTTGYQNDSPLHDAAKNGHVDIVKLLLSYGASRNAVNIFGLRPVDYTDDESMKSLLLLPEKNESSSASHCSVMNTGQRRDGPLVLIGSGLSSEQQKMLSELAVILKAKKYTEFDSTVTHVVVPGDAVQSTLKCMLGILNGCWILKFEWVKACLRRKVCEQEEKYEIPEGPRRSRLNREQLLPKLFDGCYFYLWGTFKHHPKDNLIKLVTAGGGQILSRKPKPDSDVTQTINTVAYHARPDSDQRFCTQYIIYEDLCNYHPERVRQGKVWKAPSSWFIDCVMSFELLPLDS

B1: GST-CstF-50 (92-431) (domain or fragment, human, UniProt Q05048 92-431, looked up)
chain: MSPEASEYETCYVTSHKGPCRVATYSRDGQLIATGSADASIKILDTERMLAKSAMPIEVMMNETAQQNMENHPVIRTLYDHVDEVTCLAFHPTEQILASGSRDYTLKLFDYSKPSAKRAFKYIQEAEMLRSISFHPSGDFILVGTQHPTLRLYDINTFQCFVSCNPQDQHTDAICSVNYNSSANMYVTGSKDGCIKLWDGVSNRCITTFEKAHDGAEVCSAIFSKNSKYILSSGKDSVAKLWEISTGRTLVRYTGAGLSGRQVHRTQAVFNHTEDYVLLPDERTISLCCWDSRTAERRNLLSLGHNNIVRCIVHSPTNPGFMTCSDDFRARFWYRRSTTD
B2: BARD1 (554-777) (domain or fragment, human, UniProt Q99728 554-777, looked up)
chain: ASHCSVMNTGQRRDGPLVLIGSGLSSEQQKMLSELAVILKAKKYTEFDSTVTHVVVPGDAVQSTLKCMLGILNGCWILKFEWVKACLRRKVCEQEEKYEIPEGPRRSRLNREQLLPKLFDGCYFYLWGTFKHHPKDNLIKLVTAGGGQILSRKPKPDSDVTQTINTVAYHARPDSDQRFCTQYIIYEDLCNYHPERVRQGKVWKAPSSWFIDCVMSFELLPLDS

One assay has as its target T1, BARD1 (423-777). Briefly: pull-down.
The assay “GST-CstF-50 (92-431)” addresses B1. The assay is described as follows: pull-down.

B1: in the assay with BARD1 (423-777), the binding result was “binds”. With B2, the binding result in the assay with GST-CstF-50 (92-431) is listed as “binds”.
